The target of the test is Native Trypsin (abcam). Put plainly: cell-based or functional assay.

B1: Trypsin 1/Trypsin 2-Dual-L4-Ab5 (antibody, part only; not given: light chain variable domain, V domains shown, part only)
VH: QVQLVQSGAEVKKPGASVKVSCKASGYTFTDYAISWVRQAPGQGLEWMGWISASTADTNYAQKLQGRVTMTTDTSTSTAYMELRSLRSDDTAVYYCARQDEVVGKMTYYIGTDVWGQGTTVTVSS
Consider B1, for which the IC50 Against 0.25 nM Native Trypsin is 4.8 nM.

(Values after patent publication US20260274991A1.)
